Assay results published in patent US20060034848A1 (published 2006).

Biological target: T1, LC-myc with the second NPxY motif mutated to APxA (UniProt Q07954 3944-4544, limits assumed)
T1 construct: domain: light chain (LC); The substitutions have no printed residue numbers; also called 2nd NPxY mutant; not shown: C-terminal myc tag
T1 sequence (looked up): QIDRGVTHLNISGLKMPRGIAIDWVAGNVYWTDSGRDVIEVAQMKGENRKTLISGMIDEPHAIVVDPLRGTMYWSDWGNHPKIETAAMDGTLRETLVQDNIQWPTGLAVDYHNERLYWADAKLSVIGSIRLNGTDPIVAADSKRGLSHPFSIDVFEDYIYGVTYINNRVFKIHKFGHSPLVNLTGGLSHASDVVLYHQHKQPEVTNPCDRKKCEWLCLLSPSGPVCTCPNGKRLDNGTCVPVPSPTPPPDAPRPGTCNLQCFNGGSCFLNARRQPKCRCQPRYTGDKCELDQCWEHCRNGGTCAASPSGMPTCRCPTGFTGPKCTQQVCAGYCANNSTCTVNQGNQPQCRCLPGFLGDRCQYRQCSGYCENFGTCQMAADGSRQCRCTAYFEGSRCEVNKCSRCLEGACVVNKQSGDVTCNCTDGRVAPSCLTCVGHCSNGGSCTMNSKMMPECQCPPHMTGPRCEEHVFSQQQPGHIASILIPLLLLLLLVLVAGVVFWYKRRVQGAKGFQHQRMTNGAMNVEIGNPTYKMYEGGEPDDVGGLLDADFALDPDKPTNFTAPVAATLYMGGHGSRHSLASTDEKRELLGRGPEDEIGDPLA
Experiment: FLIM/FRET in cells

B1: BACE (wild type; tag of the construct not stated at that place) (enzyme, human, UniProt P56817 46-501, looked up)
chain: ETDEEPEEPGRRGSFVEMVDNLRGKSGQGYYVEMTVGSPPQTLNILVDTGSSNFAVGAAPHPFLHRYYQRQLSSTYRDLRKGVYVPYTQGKWEGELGTDLVSIPHGPNVTVRANIAAITESDKFFINGSNWEGILGLAYAEIARPDDSLEPFFDSLVKQTHVPNLFSLQLCGAGFPLNQSEVLASVGGSMIIGGIDHSLYTGSLWYTPIRREWYYEVIIVRVEINGQDLKMDCKEYNYDKSIVDSGTTNLRLPKKVFEAAVKSIKAASSTEKFPDGFWLGEQLVCWQAGTTPWNIFPVISLYLMGEVTNQSFRITILPQQYLRPVEDVATSQDDCYKFAISQSSTGTVMGAVIMEGFYVVFDRARKRIGFAVSACHVHDEFRTAAVEGPFVTLDMEDCGYNIPQTDESTLMTIAYVMAAICALFMLPLCLMVCQWRCLRCLRQQHDDFADDISLLK
notes: whole, on cells; Used for the sentences that say only BACE or WT-BACE (NPxY mutant FLIM, Fe65 and mDab1 FRET, shedding, CTF and luciferase assays); also called WT-BACE
binding result: binds
